Measurements published in publication PMC6850750 (Biochemistry, 2019).

Target: the molecule itself
Assay: SEC

B1: YdjI (enzyme, E. coli K12)
chain: MLADIRYWENDATNKHYAIAHFNVWNAEMLMGVIDAAEEAKSPVIISFGTGFVGNTSFEDFSHMMVSMAQKATVPVITHWDHGRSMEIIHNAWTHGMNSLMRDASAFDFEENIRLTKEAVDFFHPLGIPVEAELGHVGNETVYEEALAGYHYTDPDQAAEFVERTGCDSLAVAIGNQHGVYTSEPQLNFEVVKRVRDAVSVPLVLHGASGISDADIKTAISLGIAKINIHTELCQAAMVAVKENQDQPFLHLEREVRKAVKERALEKIKLFGSDGKAE
modifications: Cys234 oxidized to cysteic acid (seen in the electron density of each subunit)
Question: B1 was tested. Which “stoichiometry N” value did it give?
Answer: 4
